Laboratory results reported in the supplement of paper PMC9112550, “Optimization of the antimicrobial peptide Bac7 by deep mutational scanning” (BMC Biology, 2022).

Test system: Escherichia coli TOP10
Assay: shrunken log2 fold change of peptide-encoding DNA abundance (4.5 h post-induction vs induction); higher = less antimicrobial activity (less host growth inhibition)
Details: time post-induction: 4.5 h; library: site-saturation at positions 5, 18, 19, 20
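Note: peptides expressed intracellularly from a pBAD plasmid library in pooled LB shake-flask culture, induced with 0.3% L-arabinose, DNA abundance read by NGS, three biological replicates, DESeq2 with apeglm shrinkage.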

Sequence	shrunken log2 fold change
RRIRKRPPRLPRPRPRPPRFPRP	0.733
RRIRDRPPRLPRPRPRPWQAPRP	-0.0194
RRIRCRPPRLPRPRPRPRRKPRP	0.399
RRIRHRPPRLPRPRPRPYIYPRP	-0.347
RRIRCRPPRLPRPRPRPVRRPRP	1.1
RRIRGRPPRLPRPRPRPQEEPRP	0.0943
RRIRTRPPRLPRPRPRPIIPPRP	-0.279
RRIRVRPPRLPRPRPRPDTEPRP	0.0532
RRIRWRPPRLPRPRPRPARPPRP	0.566
RRIRCRPPRLPRPRPRPFQPPRP	-0.281
RRIRSRPPRLPRPRPRPWKGPRP	-0.0267
RRIRVRPPRLPRPRPRPEIMPRP	-0.194
RRIRDRPPRLPRPRPRPGISPRP	0.0115
RRIRNRPPRLPRPRPRPLMAPRP	0.176
RRIRHRPPRLPRPRPRPLEYPRP	-0.168
RRIRHRPPRLPRPRPRPMTHPRP	-0.235
RRIRIRPPRLPRPRPRPCVRPRP	-0.208
RRIRARPPRLPRPRPRPMATPRP	0.601
RRIRFRPPRLPRPRPRPWLLPRP	-0.343
RRIRVRPPRLPRPRPRPWWTPRP	-0.0418
RRIRNRPPRLPRPRPRPTYLPRP	-0.533
RRIRLRPPRLPRPRPRPQGPPRP	-0.191
RRIRMRPPRLPRPRPRPTDTPRP	0.227
RRIRNRPPRLPRPRPRPCSYPRP	-0.212
RRIRLRPPRLPRPRPRPNEAPRP	0.278

Sequence	shrunken log2 fold change
RRIRGRPPRLPRPRPRPQMRPRP	0.899
RRIRMRPPRLPRPRPRPPWCPRP	0.831
RRIRCRPPRLPRPRPRPVGDPRP	0.551
RRIRRRPPRLPRPRPRPWHVPRP	-0.135
RRIRRRPPRLPRPRPRPVVWPRP	0.643
RRIRYRPPRLPRPRPRPNHRPRP	-0.767
RRIRPRPPRLPRPRPRPLPQPRP	0.286
RRIRWRPPRLPRPRPRPTDRPRP	-0.0423
RRIRERPPRLPRPRPRPTAKPRP	0.0302
RRIRQRPPRLPRPRPRPYEHPRP	0.00367
RRIRGRPPRLPRPRPRPGFLPRP	0.41
RRIRRRPPRLPRPRPRPFKAPRP	0.182
RRIRSRPPRLPRPRPRPAQRPRP	0.105
RRIRKRPPRLPRPRPRPSGCPRP	-0.00526
RRIRMRPPRLPRPRPRPSINPRP	0.0424
RRIRLRPPRLPRPRPRPSMTPRP	1.72
RRIRARPPRLPRPRPRPLTWPRP	0.272
RRIRARPPRLPRPRPRPKQMPRP	0.439
RRIRFRPPRLPRPRPRPITEPRP	-0.0279
RRIRWRPPRLPRPRPRPEIDPRP	0.0771
RRIRERPPRLPRPRPRPWNYPRP	-0.00131
RRIRWRPPRLPRPRPRPCCIPRP	0.0413
RRIRNRPPRLPRPRPRPVHEPRP	-0.00149
RRIRMRPPRLPRPRPRPFIGPRP	-0.0122
RRIRDRPPRLPRPRPRPHMHPRP	-0.0478
